From paper PMC3887218

What was measured:
[1] = fluorescence lifetime imaging (TCSPC); in vitro, pH 4.7, no heparin, 24 h; K18*: 1 μM, 10% labelled, cell culture medium (3824 ± 22 ps soluble); hTau40*: 10 μM, 1% labelled, BES buffer (3765 ± 53 ps soluble); conditions: other: fluorescence lifetime imaging (TCSPC)
[2] = fluorescence lifetime imaging (TCSPC); in vitro, 4:1 Tau:heparin (Mr 3000), 24 h, 37 °C; K18*: 1 μM, 10% labelled with Alexa Fluor 488, in cell culture medium (3664 ± 25 ps before); hTau40*: 20 μM, 1% labelled, in BES buffer pH 7.4 (3657 ± 18 ps before); a drop of the lifetime reports …; conditions: other: fluorescence lifetime imaging (TCSPC)
[3] = target: K18* (four-repeat construct K18 of human Tau with Cys-291 and Cys-322 replaced by alanine and Ile-260 replaced by cysteine) (human); assay: SDS-PAGE and Western blot of sequential detergent extracts; SH-SY5Y cells incubated 8 h with 1 μM K18*, trypsin-washed, lysed; Triton and sarkosyl fractions; NuPAGE 4-12% BisTris gel, anti-human Tau antibody A0024

Row | Substance | fluorescence lifetime of the Alexa Fluor 488 label, aggregated at pH 4.7 [1] [ps] | fluorescence lifetime of the Alexa Fluor 488 label, aggregated with heparin [2] [ps when aggregated] | stoichiometry N [3]
1 | K18* (four-repeat construct K18 of human Tau with Cys-291 and Cys-322 replaced by alanine and Ile-260 replaced by cysteine) | 3268 ± 31 | 3262 ± 71 | 
2 | K18* (four-repeat construct K18 of human Tau with Cys-291 and Cys-322 replaced by alanine and Ile-260 replaced by cysteine) (domain or fragment) |  |  | 2
